Data: patent US20110262452A1 (Genentech, published 2011)

Columns and labels:
[1] = biological target: T1, Hepsin (human), recombinant, active (human, UniProt P05981 45-417); experiment: cell-based or functional assay
[2] = biological target: mouse hepsin extracellular domain (Ser45-Pro416) with C-terminal His-tag (mouse) (UniProt O35453); experiment: enzyme inhibition, S2765 substrate, tight binding inhibition fit (Ki app); Fab25, murine hepsin
[3] = biological target: mouse hepsin extracellular domain (Ser45-Pro416) with C-terminal His-tag (mouse) (UniProt O35453)
[4] = biological target: T1, Hepsin (human), recombinant, active; experiment: isothermal titration calorimetry, Fab25 titrated into active hepsin
Protocol: FIG. 18: Isothermal titration calorimetric experiment of Fab25 binding to active hepsin. The association reaction is exothermic and the stoichiometry of binding is 1:1 as expected.
Isothermal Titration calorimetry: TC experiments were performed on a ITC₂₀₀ instrument (GE healthcare). Fab25 and hepsin were purified separately on a size exclusion chromatographic column (Superdex S200, GE healthcare), using a buffer containing 50 mM HEPES pH 7.5 and 150 mM NaCl. The sample cell (204 μl) was loaded with hepsin (14 μM) and the Fab25 concentration in the syringe was 138 μM. A titration experiment typically consisted of 20 injections, each of 2 μL volume and 180 sec duration, with a 3 min interval between additions. The stirring rate was 1000 rpm. Raw data were integrated, corrected for nonspecific heats, normalized for concentration, and analyzed according to a 1:1 binding model assuming a single set of identical binding sites. (The isothermal titration curve was registered and analyzed using ORIGIN software provided with the ITC instrument. The data were integrated to provide a titration curve; and, by using a nonlinear least-squares fit, the binding constant KA, the heat of binding (ΔH), and the stoichiometry of binding were extracted from the curve.

[5] = biological target: T1, Hepsin (human), recombinant, active; experiment: enzyme inhibition, S2765 substrate (ratio of Ki app)
Protocol: (§1) Enzymatic assays with synthetic substrates: Fab25, IgG25, control Fab, or control IgG were incubated with hepsin (1 nM for human and 2 nM for mouse hepsin) in Hepes buffer (20 mM Hepes, pH 7.5, 150 mM NaCl, 5 mM CaCl₂, 0.01% Triton X-100) for 40 min at room temperature. For experiments with 3,4-dichloro-isocoumarin (DCI), hepsin (1 nM) was incubated with DCI in Hepes buffer containing 0.5% DMSO for 40 min. S2765 was added (final concentration of 0.2 mM) and the linear rates of the increase in absorbance at 405 nm measured on a kinetic microplate reader (Versamax, Molecular Devices, Sunnyvale, Calif.). Data were expressed as fractional enzyme activity (vᵢ/vₒ) and fitted to a four parameter regression curve fitting program (Kaleidagraph Version 3.6, Synergy Software) to determine the IC₅₀ values. Values are the average±SD of three independent experiments. Kᵢ^app values for Fab25 and IgG25 were calculated by fitting the data to the equation for tight binding inhibition systems (Morrison, 1969; Olivero et al., 2005).

[6] = biological target: T1, Hepsin (human), recombinant, active; experiment: BLI (Octet RED), biotinylated hepsin on streptavidin sensor, Fab25 in solution, 1:1 fit
Protocol: Fab25 binding to hepsin: An Octet-RED system equipped with streptavidin SBC biosensor tips was purchased from ForteBio (Menlo Park, Calif.). Prior to the start of the experiment, the sensor tips were pre-wet for 15 minutes at 25° C. in a buffer containing 50 mM Hepes pH 7.5, 150 mM NaCl and 0.05% tween-20. Biotinylated hepsin (7.5 μg/ml) was captured on to the streptavidin sensor for 5 minutes with agitation at 1000 rpm. The sensors were briefly washed in buffer before dipping them on to the sample wells containing Fab25 (2-fold serial dilution starting from 200 nM) and buffer control. Association was monitored for 10 minutes and dissociation was followed for 30 minutes. The data was fit to 1:1 binding model using Octet-RED analysis software.

[7] = biological target: T1, Hepsin (human), recombinant, active; experiment: cell-based or functional assay; remark: listed apart in the source
[8] = biological target: T1, Hepsin (human), recombinant, active; experiment: enzyme inhibition, S2765 substrate, tight binding inhibition fit (Ki app); Fab25, human hepsin
Protocol: as §1

[9] = biological target: T1, Hepsin (human), recombinant, active; experiment: phage competition ELISA: biotin-hepsin immobilised on NeutrAvidin plates, bound Fab25-phage detected with anti-M13-HRP, KD1 titrated as competitor of Fab25-phage
pro-hepsin = pro-hepsin (UniProt P05981 45-417, limits assumed); experiment: SPR (BIAcore 3000), Ab25 captured on CM5 chip, pro-hepsin injected, steady state analysis
Protocol: (§2) FIG. 17: A. Surface plasmon resonance was used to measure the binding affinity of Ab25 with active human hepsin. Serial dilutions of hepsin (0.39 nM to 200 nM) were injected to a CM5 biosensor chip with captured Ab25 for 3 minutes and the dissociation was monitored for 15 minutes. […] Serial dilutions of pro-hepsin (195 nM to 80 μM) were injected to a CM5 biosensor chip with captured Ab25 for 2 minutes.
(§3) Binding of Ab25 to hepsin by surface plasmon resonance: Surface plasmon resonance measurements were performed on a BIAcore™-3000 instrument (GE Health Care, NJ) to determine binding affinity of the Ab25. Rabbit anti-human IgG were chemically immobilized (amine coupling) on CM5 biosensor chips and Ab25 was captured to give approximately 350 response units (RU). For kinetics measurements, two-fold serial dilutions of active hepsin (1 nM to 500 nM) were injected in HBS-P buffer at 25° C. with a flow rate of 30 μl/min. Association rates (kₐ) and dissociation rates (kd) were obtained by using a simple one-to-one Langmuir binding model (BIA-Evaluation) and the equilibrium dissociation constants (KD) were calculated (kd/kₐ). Due to rapid kinetics, a steady state measurement was used to determine the affinity of pro-hepsin with Ab25. […] The values of Req were calculated and plotted individually against C (concentration of pro-hepsin) using BIA-Evaluation to determine KD.

[10] = biological target: T1, Hepsin (human), recombinant, active; experiment: enzyme inhibition, S2765 substrate, tight binding inhibition fit (Ki app); IgG25, not Fab; human hepsin
Protocol: as §1

[11] = biological target: T1, Hepsin (human), recombinant, active; experiment: SPR (BIAcore 3000), Ab25 captured by anti-human IgG on CM5 chip, active human hepsin injected, 1:1 fit
Protocol: as §2, §3

T1 sequence (P05981 45-417 limits assumed): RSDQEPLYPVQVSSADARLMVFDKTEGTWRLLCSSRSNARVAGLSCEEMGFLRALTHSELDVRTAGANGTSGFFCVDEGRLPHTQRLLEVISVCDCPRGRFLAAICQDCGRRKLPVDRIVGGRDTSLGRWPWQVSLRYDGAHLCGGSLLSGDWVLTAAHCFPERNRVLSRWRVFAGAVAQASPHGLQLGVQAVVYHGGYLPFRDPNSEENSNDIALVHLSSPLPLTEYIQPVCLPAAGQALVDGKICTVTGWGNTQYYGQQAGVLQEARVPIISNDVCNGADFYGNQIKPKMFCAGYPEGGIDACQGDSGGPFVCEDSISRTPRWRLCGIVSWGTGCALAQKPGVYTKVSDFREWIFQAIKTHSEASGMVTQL
Chain of pro-hepsin (P05981 45-417 limits assumed): as above

B1: anti-hepsin antibody Fab25 (Fab, V domains shown)
VH: EVQLVESGGGLVQPGGSLRLSCAASGFNFSYSYMHWVRQAPGKGLEWVASIYSYYGSTYYADSVKGRFTISADTSKNTAYLQMNSLRAEDTAVYYCARSDSWSYKSGYTQKIYSKGLDYWGQGTLVTVSS
VL: DIQMTQSPSSLSASVGDRVTITCRASQSVSSAVAWYQQKPGKAPKLLIYSASSKGVPSRFSGSRSGTDFTLTISSLQPEDFATYYCQQYYSSYYLLTFGQGTKVEIK
notes: also called HpsFab25; Clone 25 (Fab form)
- IC50 of hepsin-mediated pro-uPA activation (two-stage enzymatic assay) [1]: 3.3 nM
- Ki [2]: 329 nM
- IC50 (read off the curve) [3]: 300 nM
- Kd [4]: 6.1 nM
- stoichiometry of binding [4]: 1 Fab25 per hepsin
- fold more potent inhibition than of murine hepsin [5]: ~80 fold
- Kd [6]: 2.55 nM
- IC50 (read off the curve) [7]: ~5 nM
- Ki [8]: 4.1 nM

B2: Kunitz domain inhibitor-1 (KD1) derived from HGFA-inhibitor-1 (HAI-1) (other, UniProt O43278 246-303, looked up)
chain: TEDYCLASNKVGRCRGSFPRWYYDPTEQICKSFVYGGCLGNKNNYLREEECILACRGV
- IC50 (read off the curve) [9]: ~0.2 nM

B3: anti-hepsin antibody IgG25 (antibody, V domains shown)
VH: B1 VH
VL: B1 VL
notes: also called Ab25; mab 25
- Kd (pro-hepsin): 5520 nM
- Ki [10]: 11.3 nM
- Kd [11]: 10.6 nM
